Residue numbers refer to the chain shown, from its start. Blank lines part the entries; values can stand above or below the binder they belong to.
Assays:
[1] = target: anti-VEGF/ANG2 antibody (wild-type IgG1 subclass) (human) [IgG part: P01857]; assay: sandwich ELISA assay B; capture on SA plate; tracer M1.7.10-Dig; analyte 2 ng/mL
[2] = target: target antibodies; assay: depletion of target antibody from sample; concentration before depletion 30.00 µg/mL
[3] = target: anti-VEGF/ANG2 antibody (wild-type IgG1 subclass) (human) [IgG part: P01857]; assay: sandwich ELISA assay B; capture on SA plate; tracer M1.7.10-Dig; analyte 3 ng/mL
[4] = target: anti-VEGF/ANG2 antibody (IgG1 subclass with mutations P329G/L234A/L235A) [IgG part: P01857]; assay: sandwich ELISA assay E; tracer M1.7.10-Dig; analyte 2) at 12.5 ng/mL
[5] = target: anti-VEGF/ANG2 antibody (IgG1 subclass with mutations P329G/L234A/L235A/I253A/H310A/H435A) [IgG part: P01857]; assay: bridging ELISA; biotinylated and digoxigenylated anti-VEGF/ANG2 antibody bridged by M1.3.17 at 15.625 ng/mL
[6] = target: anti-VEGF/ANG2 antibody (IgG1 subclass with mutations P329G/L234A/L235A/I253A/H310A/H435A) [IgG part: P01857]; assay: sandwich ELISA in serum; capture M1.3.17, tracer M1.7.24; anti-VEGF/ANG2 antibody 625 ng/mL
[7] = target: anti-VEGF/ANG2 antibody (IgG1 subclass with mutations P329G/L234A/L235A/I253A/H310A/H435A) (human) [IgG part: P01857]; assay: sandwich ELISA in serum; M1.3.17-Bi capture on SA plate; tracer anti-human kappa M1.7.10-Dig; analyte 0.15625 ng/mL
[8] = target: anti-VEGF/ANG2 antibody (IgG1 subclass with mutations P329G/L234A/L235A/I253A/H310A/H435A) (human) [IgG part: P01857]; assay: sandwich ELISA in serum; M1.3.17-Bi capture on SA plate; tracer anti-human kappa M1.7.10-Dig; analyte 0.3125 ng/mL
[9] = target: anti-Dig antibody (IgG1 subclass with mutations P329G/L234A/L235A) [IgG part: P01857]; assay: sandwich ELISA assay D; tracer M1.7.10-Dig; analyte conc. not printed (row 3 of 8)
[10] = target: anti-VEGF/ANG2 antibody (IgG1 subclass with mutations P329G/L234A/L235A/I253A/H310A/H435A) [IgG part: P01857]; assay: sandwich ELISA in serum; capture M1.3.17, tracer M1.7.24; anti-VEGF/ANG2 antibody 78.125 ng/mL
[11] = target: anti-VEGF/ANG2 antibody (IgG1 subclass with mutations P329G/L234A/L235A/I253A/H310A/H435A) [IgG part: P01857]; assay: bridging ELISA; biotinylated and digoxigenylated anti-VEGF/ANG2 antibody bridged by M1.3.17 at 250 ng/mL
[12] = target: anti-VEGF/ANG2 antibody (IgG1 subclass with mutations P329G/L234A/L235A/I253A/H310A/H435A) [IgG part: P01857]; assay: bridging ELISA; biotinylated and digoxigenylated anti-VEGF/ANG2 antibody bridged by M1.3.17 at 3.90625 ng/mL
[13] = target: anti-VEGF/ANG2 antibody (IgG1 subclass with mutations P329G/L234A/L235A/I253A/H310A/H435A) [IgG part: P01857]; assay: bridging ELISA; biotinylated and digoxigenylated anti-VEGF/ANG2 antibody bridged by M1.3.17 at 125 ng/mL
[14] = target: anti-VEGF/ANG2 antibody (IgG1 subclass with mutations P329G/L234A/L235A) [IgG part: P01857]; assay: sandwich ELISA assay E; tracer M1.7.10-Dig; analyte 2) at 50 ng/mL
[15] = target: anti-VEGF/ANG2 antibody (IgG1 subclass with mutations P329G/L234A/L235A/I253A/H310A/H435A) [IgG part: P01857]; assay: sandwich ELISA assay E; tracer M1.7.10-Dig; analyte 1) at 50 ng/mL
[16] = target: anti-VEGF/ANG2 antibody (IgG1 subclass with mutations P329G/L234A/L235A/I253A/H310A/H435A) [IgG part: P01857]; assay: bridging ELISA; biotinylated and digoxigenylated anti-VEGF/ANG2 antibody bridged by M1.3.17 at 7.8125 ng/mL
[17] = target: anti-Dig antibody (IgG1 subclass with mutations P329G/L234A/L235A) [IgG part: P01857]; assay: sandwich ELISA assay D; tracer M1.19.31-Dig; analyte conc. not printed (row 7 of 8)
[18] = target: cytokine (IL-2) antibody conjugate with the mutations P329G, L234A, L235A, I253A, H310A, and H435A; assay: sandwich ELISA in serum; capture anti-IL2 antibody, tracer M1.7.24; conjugate 0 ng/mL (blank)
[19] = target: anti-VEGF/ANG2 antibody (IgG1 subclass with mutations P329G/L234A/L235A/I253A/H310A/H435A) [IgG part: P01857]; assay: sandwich ELISA in serum; capture M1.7.10-Bi, tracer M1.7.24-Dig; anti-VEGF/ANG2 antibody 2.5 ng/mL
[20] = target: anti-VEGF/ANG2 antibody (IgG1 subclass with mutations P329G/L234A/L235A/I253A/H310A/H435A) [IgG part: P01857]; assay: sandwich ELISA in serum; capture M1.7.10-Bi, tracer M1.7.24-Dig; anti-VEGF/ANG2 antibody 0.078125 ng/mL
[21] = target: anti-VEGF/ANG2 antibody (IgG1 subclass with mutations P329G/L234A/L235A/I253A/H310A/H435A) [IgG part: P01857]; assay: sandwich ELISA in serum; capture M1.7.10-Bi, tracer M1.7.24-Dig; anti-VEGF/ANG2 antibody 10 ng/mL
[22] = target: anti-VEGF/ANG2 antibody (IgG1 subclass with mutations P329G/L234A/L235A/I253A/H310A/H435A) [IgG part: P01857]; assay: sandwich ELISA in serum; capture M1.7.10-Bi, tracer M1.7.24-Dig; anti-VEGF/ANG2 antibody 0.625 ng/mL

- signal [OD405 nm] [1]: 0.036 OD405 nm
- concentration after depletion [2]: 0.0054 µg/mL
- recovery [%] [2]: 0.018%
- signal [OD405 nm] [3]: 0.037 OD405 nm
B1: anti-AAA variant Fc-region antibody M1.6.22 (antibody, V domains shown)
VH: EVQLVESGGDLVKPGGSLKLSCAASGFTFSSYGMSWVRQTPDKRLEWVATISSGGSYIYYPDSVKGRFTISRDNAKNTLYLQMSSLKSEDTAMYYCARLGMITTGYAMDYWGQGTSVTVSS
VL: DVLMTQTPLSLPVSLGDQASISCRSSQTIVHSTGHTYLEWFLQKPGQSPKLLIYKVSNRFSGVPDRFSGSGSGTDFTLKISRVEAEDLGVYYCFQGSHVPYTFGGGTKLEIK

- signal [OD405 nm] [4]: 0.96 OD405 nm
- signal [OD405 nm] [5]: 0.05 OD405 nm
- signal [OD405 nm] [6]: 1.13 OD405 nm
- signal [OD405 nm] [7]: 0.107 OD405 nm
- signal [OD405 nm] [8]: 0.181 OD405 nm
- signal 10% cynomolgus serum [OD405 nm] [9]: 0.485 OD405 nm
- signal 10% human serum [OD405 nm] [9]: 2.51 OD405 nm
- signal buffer [OD405 nm] [9]: 0.037 OD405 nm
- concentration after depletion [2]: 0.008 µg/mL
- recovery [%] [2]: 0.027%
- signal [OD405 nm] [10]: 0.301 OD405 nm
- signal [OD405 nm] [11]: 0.15 OD405 nm
- signal [OD405 nm] [12]: 0.045 OD405 nm
- signal [OD405 nm] [13]: 0.085 OD405 nm
- signal [OD405 nm] [14]: 1.89 OD405 nm
- signal [OD405 nm] [15]: 1.95 OD405 nm
- signal [OD405 nm] [16]: 0.047 OD405 nm
- signal 10% cynomolgus serum [OD405 nm] [17]: 0.075 OD405 nm
- signal 10% human serum [OD405 nm] [17]: 1.71 OD405 nm
- signal buffer [OD405 nm] [17]: 0.033 OD405 nm
B2: anti-variant (human) Fc-region antibody M1.3.17 (antibody, V domains shown)
VH: EVKLLESGGGLVQPGGSLKLSCAASGIDFRRYWMNWVRQAPGKGLEWIGEIDPDSSTINYTPSLKDKFIISRDNAKNTMYLQMRKVRSEDTALYYCARPYDYGAWFAYWGQGTLVTVSA
VL: QAVVTQESALTTSPGETVTLTCRSTTGAVTTSNYANWVQEKPDHLFTGLIGGTNKRAPGVPARFSGSLIGDKAALTITGAQTEDEAIYFCALWYSDHWVFGGGTKLTVL

- signal [OD405 nm] [4]: 0.884 OD405 nm
- signal 10% cynomolgus serum [OD405 nm] [9]: 0.575 OD405 nm
- signal 10% human serum [OD405 nm] [9]: 2.48 OD405 nm
- signal buffer [OD405 nm] [9]: 0.039 OD405 nm
- signal [OD405 nm] [1]: 0.034 OD405 nm
- signal [OD405 nm] [18]: 0.0475 OD405 nm
- signal [OD405 nm] [3]: 0.033 OD405 nm
- signal [OD405 nm] [19]: 1.44 OD405 nm
- signal [OD405 nm] [14]: 1.8 OD405 nm
- signal [OD405 nm] [20]: 0.096 OD405 nm
- signal [OD405 nm] [15]: 1.94 OD405 nm
- signal [OD405 nm] [21]: 2.76 OD405 nm
- signal [OD405 nm] [22]: 0.468 OD405 nm
- signal 10% cynomolgus serum [OD405 nm] [17]: 0.039 OD405 nm
- signal 10% human serum [OD405 nm] [17]: 1.39 OD405 nm
- signal buffer [OD405 nm] [17]: 0.033 OD405 nm
B3: anti-variant (human) Fc-region antibody M1.7.24 (antibody, V domains shown)
VH: B2 VH with I27F, R30S, D52T, M79L, R84I, A97V, Y108S
VL: B2 VL with T25S, D96N
